Assay results reported in article PMC3293257.

Molecular target: FBF-1/CSR-1 heterodimer (GST-FBF-1 with His6-CSR-1(MID-PIWI)) (C. elegans) (UniProt Q9N5M6)
Experiment: pull-down

Recombinant EFT-3 (natural protein)
stoichiometry N: 1
